Results on one protein are retold here after article PMC11870023, “A facile assay for zDHHC palmitoyl transferase activation elucidates effects of mutation and modification” (Journal of Lipid Research, 2025).

Substrate in this data set: CC(C)(COP(=O)(O)OP(=O)(O)OC[C@H]1O[C@@H](n2cnc3c(N)ncnc32)[C@H](O)[C@@H]1OP(=O)(O)O)[C@@H](O)C(=O)NCCC(=O)NCCSC(=O)CCCCCCCCCCCCCCCNc1ccc([N+](=O)[O-])c2nonc12
As to the kind of experiment: auto-S-palmitoylation of HEK293 membranes, SDS-PAGE fluorescence normalised to tag Western blot. The data set is classed as cell-based, Homo sapiens. The settings on record: pH 7.4, 37 °C, 2 min, labelled compound, covalent thioester at active-site Cys. The text has this:
auto-S-palmitoylation of HEK293 membranes, SDS-PAGE fluorescence normalised to tag Western blot on human zDHHC14 | L215S mutation within the third transmembrane segment of zDHHC14 (Fig. 4A) substantially diminished auto-S-palmitoylation
(In general: In western blotting, separated proteins are transferred to a membrane and probed.)

B1: human zDHHC14 (Homo sapiens; L215S) (protein)
chain: MPPGGGGPMKDCEYSQISTHSSSPMESPHKKKKIAARRKWEVFPGRNKFFCNGRIMMARQTGVFYLTLVLILVTSGLFFAFDCPYLAVKITPAIPAVAGILFFFVMGTLLRTSFSDPGVLPRATPDEAADLERQIDIANGTSSGGYRPPPRTKEVIINGQTVKLKYCFTCKIFRPPRASHCSLCDNCVERFDHHCPWVGNCVGKRNYRFFYMFISSLSFLTVFIFAFVITHVILRSQQTGFLNALKDSPASVLEAVVCFFSVWSIVGLSGFHTYLISSNQTTNEDIKGSWSNKRGKENYNPYSYGNIFTNCCVALCGPISPSLIDRRGYIQPDTPQPAAPSNGITMYGATQSQSDMCDQDQCIQSTKFVLQAAATPLLQSEPSLTSDELHLPGKPGLGTPCASLTLGPPTPPASMPNLAEATLADVMPRKDEHMGHQFLTPDEAPSPPRLLAAGSPLAHSRTMHVLGLASQDSLHEDSVRGLVKLSSV
notes: full length, His6-Myc tag kept (pCEpuro-His6-Myc-1), HEK293 membrane fraction
Regarding B1, the Km (in general, the substrate concentration at which the rate is half of its maximum) came out at 4.46 ± 2.66 µM.
